In publication PMC3271085, “Enhancement of Chemokine Function as an Immunomodulatory Strategy Employed by Human Herpesviruses” (PLoS Pathogens, 2012):

Target: soluble, secreted form of HSV-2 glycoprotein G (SgG2) (herpes simplex virus type 2) (UniProt P13290)
Experiment: SPR; Biacore X; SgG1 or SgG2 amine-coupled to CM5 chips (dialysed against acetate buffer pH 5.0 for SgG1, pH 5.5 for SgG2); chemokines injected; screening at 100 nM and kinetic conditions as in ref. 16; Biaevaluation 3.2

soluble, secreted form of HSV-2 glycoprotein G (SgG2) (herpes simplex virus type 2), sequence (P13290 23-699): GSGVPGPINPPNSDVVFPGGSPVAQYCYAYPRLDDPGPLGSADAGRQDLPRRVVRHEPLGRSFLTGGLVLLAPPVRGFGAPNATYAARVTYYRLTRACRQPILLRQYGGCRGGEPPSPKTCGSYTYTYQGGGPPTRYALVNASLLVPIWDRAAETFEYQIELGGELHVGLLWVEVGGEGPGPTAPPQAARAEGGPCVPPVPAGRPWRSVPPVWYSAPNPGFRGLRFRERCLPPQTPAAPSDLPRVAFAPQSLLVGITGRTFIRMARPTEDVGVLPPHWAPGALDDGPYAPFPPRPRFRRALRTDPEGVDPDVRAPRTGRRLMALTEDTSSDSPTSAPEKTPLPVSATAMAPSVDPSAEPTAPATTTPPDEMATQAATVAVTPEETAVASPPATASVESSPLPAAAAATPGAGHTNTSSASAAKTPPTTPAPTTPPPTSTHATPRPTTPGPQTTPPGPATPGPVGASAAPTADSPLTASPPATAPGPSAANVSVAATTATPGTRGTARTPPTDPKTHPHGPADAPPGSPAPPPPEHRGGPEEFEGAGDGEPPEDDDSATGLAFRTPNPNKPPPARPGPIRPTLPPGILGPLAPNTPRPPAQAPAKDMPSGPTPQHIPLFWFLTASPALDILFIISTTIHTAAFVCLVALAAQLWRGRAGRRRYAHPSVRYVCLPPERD

human CCL25 (from UniProt O15444 24-150) (ligand)
Kd: 1.6 nM

human CXCL10 (from UniProt P02778 22-98) (ligand)
Kd: 5.5 nM

human CXCL12β (from UniProt P48061 22-93) (ligand)
Kd: 2.2 nM

human CCL26 (from UniProt Q9Y258 24-94) (ligand)
Kd: 1.72 nM

B1: human CCL18 (ligand)
chain: AQVGTNKELCCLVYTSWQIPQKFIVDYSETSPQCPKPGVILLTKRGRQICADPNKKWVQKYISDLKLNA
notes: also called hCCL18; source: commercially available (Protocol S2)
Kd: 28 nM

B2: human CXCL11 (ligand)
chain: FPMFKRGRCLCIGPGVKAVKVADIEKASIMYPSNNCDKIEVIITLKENKGQRCLNPKSKQARLIIKKVERKNF
notes: also called hCXCL11; source: commercially available (Protocol S2)
Kd: 6 nM

B3: human CCL28 (ligand)
chain: SEAILPIASSCCTEVSHHISRRLLERVNMCRIQRADGDCDLAAVILHVKRRRICVSPHNHTVKQWMKVQAAKKNGKGNVCHRKKHHGKRNSNRAHQGKHETYGHKTPY
notes: also called hCCL28; source: commercially available (Protocol S2)
Kd: 3.2 nM

B4: human CXCL14 (ligand)
chain: SKCKCSRKGPKIRYSDVKKLEMKPKYPHCEEKMVIITTKSVSRYRGQEHCLHPKLQSTKRFIKWYNAWNEKRRVYEE
notes: also called hCXCL14; source: commercially available (Protocol S2)
Kd: 4.3 nM

B5: human CXCL9 (ligand)
chain: TPVVRKGRCSCISTNQGTIHLQSLKDLKQFAPSPSCEKIEIIATLKNGVQTCLNPDSADVKELIKKWEKQVSQKKKQKNGKKHQKKKVLKVRKSQRSRQKKTT
notes: also called hCXCL9; source: commercially available (Protocol S2)
Kd: 12.3 nM

B6: human CCL22 (ligand)
chain: GPYGANMEDSVCCRDYVRYRLPLRVVKHFYWTSDSCPRPGVVLLTFRDKEICADPRVPWVKMILNKLSQ
Kd: 5.22 nM

B7: human CXCL13 (ligand)
chain: VLEVYYTSLRCRCVQESSVFIPRRFIDRIQILPRGNGCPRKEIIVWKKNKSIVCVDPQAEWIQRMMEVLRKRSSSTLPVPVFKRKIP
notes: also called hCXCL13; source: commercially available (Protocol S2)
Kd: 4.3 nM
